Test system: Grsf1-GST
Assay: EMSA
Conditions: 10 mM HEPES-NaOH pH 7.9, 25 mM KCl, 1.5 mM EDTA, 4% glycerol, 0.25 mM DTT, 7.5 ug/uL heparin, 25 ng/uL yeast tRNA, 20 min at 30 C; native 5% PAGE

Substance: Use1 dG4 probe (GGGG deleted from A(G)4A)
- Kd: 4400 nM

Substance: Use1 5'UTR WT A(G)4A probe
- Kd: 527 nM
